# From the supplement of paper PMC12764529
# ± gives the half width of the 95% confidence interval.
# How the values were obtained:
# [1] = folding stability dG unfold from trypsin proteolysis; higher = more stable
# Procedure, shortened: (§1)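 Designed mini-proteins (under 80 residues, no cysteine) in a PA-tagged cDNA display construct were digested with trypsin and chymotrypsin. Each protease was used at 11 concentrations (threefold dilutions) plus a no-protease condition, followed by sequencing. K50 was inferred by Bayesian fitting of sequencing counts, and unfolding free energy was derived against a sequence-predicted unfolded-state K50 and a shared folded-state K50, per protease or combined. Only designs with AlphaFold2 dimer inter-PAE above 15 were kept.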
# [2] = folding stability dG unfold from chymotrypsin proteolysis; higher = more stable
# Procedure, shortened: as §1
# [3] = folding stability dG unfold (combined trypsin and chymotrypsin); higher = more stable
# Procedure, shortened: as §1
sequence,measurement,setting,value
SAGGSAGGSKEEIRKRIAERLRELIPDAKITSIEFDEKTKKITITVDSPEVREALEKLPGIKPSAGGSAGGS [r12_623_TrROS_Hall],folding stability dG unfold,[1],1.49 ± 0.037 kcal/mol
same,folding stability dG unfold,[2],1.63 ± 0.088 kcal/mol
same,folding stability dG unfold,[3],1.53 ± 0.11 kcal/mol
SAGGSAGGSKEKVIEIKIKVKTKEEAKKKAEELAKELEKKGYKIKKVEIKYDKETKEVTVRIESAGGSAGGS [r20_155_TrROS_Hall],folding stability dG unfold,[1],3.9 ± 0.2 kcal/mol
same,folding stability dG unfold,[2],4.02 ± 0.097 kcal/mol
same,folding stability dG unfold,[3],3.95 ± 0.12 kcal/mol
SAGGSAGGSKEKYIKIVVEVNGEKKVIVVKAKTIEELEELAKKLNLEVEIEKREDGYLVIRLKSAGGSAGGS [r12_810_TrROS_Hall],folding stability dG unfold,[1],3.21 ± 0.053 kcal/mol
same,folding stability dG unfold,[2],3.36 ± 0.058 kcal/mol
same,folding stability dG unfold,[3],3.29 ± 0.058 kcal/mol
SAGGSAGGSKELLKNLPPGAKITVEKKEDGTVRITITNKDGSEKEIEIKVNGKIIKLTIKKKPSAGGSAGGS [r20_50_TrROS_Hall],folding stability dG unfold,[1],2.04 ± 0.098 kcal/mol
same,folding stability dG unfold,[2],0.245 ± 0.42 kcal/mol
same,folding stability dG unfold,[3],1.04 ± 0.32 kcal/mol
SAGGSAGGSKETLTIKIKVEVKDENGEKKEVTVTLTIKAETKEEAEALLKELKEKYPNVKVEPSAGGSAGGS [r12_1043_TrROS_Hall],folding stability dG unfold,[1],2.7 ± 0.38 kcal/mol
same,folding stability dG unfold,[2],2.9 ± 0.11 kcal/mol
same,folding stability dG unfold,[3],2.93 ± 0.23 kcal/mol
SAGGSAGGSKGKKITIILPPGMPPDAIKNWLAPLGINITIEPIPVVKPKRDPDDGEETYEPYGSAGGSAGGS [r12_80_TrROS],folding stability dG unfold,[1],0.73 ± 0.1 kcal/mol
same,folding stability dG unfold,[2],0.596 ± 0.24 kcal/mol
same,folding stability dG unfold,[3],0.579 ± 0.2 kcal/mol
SAGGSAGGSKITSIEEKDGFVRITIEVDGKTETKTIPKENLPPNITFPPGAKVKIEKVSKEDLSAGGSAGGS [r12_1005_TrROS_Hall],folding stability dG unfold,[1],0.449 ± 0.04 kcal/mol
same,folding stability dG unfold,[2],1.74 ± 0.043 kcal/mol
same,folding stability dG unfold,[3],1.32 ± 0.073 kcal/mol
SAGGSAGGSKITSIQPHDGFWRIEIKPDGKPQERWINMDELPPNIKIPPGYKVKIEPFSPGDMSAGGSAGGS [r12_1005_TrROS],folding stability dG unfold,[1],-0.0148 ± 0.14 kcal/mol
same,folding stability dG unfold,[2],-0.769 ± 0.92 kcal/mol
same,folding stability dG unfold,[3],-0.26 ± 0.26 kcal/mol
SAGGSAGGSKKAEELAKKLGLEVEIVKVEKKKDGSEVVIVKIKNKDGSELTLVVKDGKVELFPSAGGSAGGS [r12_279_TrROS_Hall],folding stability dG unfold,[1],1.79 ± 0.081 kcal/mol
same,folding stability dG unfold,[2],2.44 ± 0.073 kcal/mol
same,folding stability dG unfold,[3],2.24 ± 0.079 kcal/mol
SAGGSAGGSKKALVVFYNPETGEVEVLEVEGDADLLKELFEPGTVVEIRVGDEVITIYPEDLKSAGGSAGGS [r20_36_TrMRF],folding stability dG unfold,[1],1.51 ± 0.085 kcal/mol
same,folding stability dG unfold,[2],2.41 ± 0.054 kcal/mol
same,folding stability dG unfold,[3],2.11 ± 0.058 kcal/mol
SAGGSAGGSKKIKIKVKVKNPKTKKYYEIEIEISEEELKEGKLTKEQIKKELEKLGYEVEIVPSAGGSAGGS [r20_221_TrROS_Hall],folding stability dG unfold,[1],3.26 ± 0.15 kcal/mol
same,folding stability dG unfold,[2],2.6 ± 0.07 kcal/mol
same,folding stability dG unfold,[3],2.9 ± 0.095 kcal/mol
SAGGSAGGSKKKITRIVITDFDPETGKVTVRIRNENGEEETIEVETLEELKELFPDVEVEVIPSAGGSAGGS [r12_403_TrROS_Hall],folding stability dG unfold,[1],2.45 ± 0.049 kcal/mol
same,folding stability dG unfold,[2],2.09 ± 0.044 kcal/mol
same,folding stability dG unfold,[3],2.24 ± 0.059 kcal/mol
SAGGSAGGSKKKKIEIIIVMSKEEAEKIAEELKKKYNIKEIKIKVIPLKKNSPKVKELLKKLKSAGGSAGGS [r12_649_TrROS_Hall],folding stability dG unfold,[1],1.03 ± 0.071 kcal/mol
same,folding stability dG unfold,[2],1.92 ± 0.12 kcal/mol
same,folding stability dG unfold,[3],1.62 ± 0.37 kcal/mol
SAGGSAGGSKKKKKKVKKKKVYRVKIKTKDGKLIEIEVSVEDLEKIKKAAEKAGFEIVEIEPVSAGGSAGGS [r12_891_TrROS_Hall],folding stability dG unfold,[1],2.39 ± 0.076 kcal/mol
same,folding stability dG unfold,[2],3.86 ± 0.18 kcal/mol
same,folding stability dG unfold,[3],3.42 ± 0.2 kcal/mol
SAGGSAGGSKKKKKVKYKIKVINPEKPEVKEIEIEAENEEEAKKLAEELAKKYPGVKVEIEKTSAGGSAGGS [r12_601_TrROS_Hall],folding stability dG unfold,[1],1.08 ± 0.07 kcal/mol
same,folding stability dG unfold,[2],2.95 ± 0.064 kcal/mol
same,folding stability dG unfold,[3],2.48 ± 0.095 kcal/mol
SAGGSAGGSKKKPYIIKIYYKDPKTKKKSKKEILVSGKVKNPEKFAKEAAKKLGPVGKVEFKPSAGGSAGGS [r12_942_TrMRF],folding stability dG unfold,[1],-0.0324 ± 0.084 kcal/mol
same,folding stability dG unfold,[2],0.757 ± 0.15 kcal/mol
same,folding stability dG unfold,[3],0.537 ± 0.098 kcal/mol
SAGGSAGGSKKKVKVEIVEYDPETKKVTVRVTVDGKEYEFTFSTPEELEAAAKAGKIDEITLTSAGGSAGGS [r12_421_TrROS_Hall],folding stability dG unfold,[1],2.26 ± 0.059 kcal/mol
same,folding stability dG unfold,[2],2.29 ± 0.043 kcal/mol
same,folding stability dG unfold,[3],2.26 ± 0.066 kcal/mol
SAGGSAGGSKKPKAKIKKIEFFPEGNKIVALVEFPDKVIKEIVFENLPPEEAIKKALEFAKKGSAGGSAGGS [r20_181_TrMRF],folding stability dG unfold,[1],1.08 ± 0.036 kcal/mol
same,folding stability dG unfold,[2],1.42 ± 0.039 kcal/mol
same,folding stability dG unfold,[3],1.31 ± 0.12 kcal/mol
SAGGSAGGSKKTVLVRITVTLPNGEKREIELEVEVDSVEDLKELLKKLPLPPGMKVTIEVVPASAGGSAGGS [r20_162_TrROS_Hall],folding stability dG unfold,[1],4.48 ± 0.31 kcal/mol
same,folding stability dG unfold,[2],3.4 ± 0.2 kcal/mol
same,folding stability dG unfold,[3],4.16 ± 0.31 kcal/mol
SAGGSAGGSKKVEIKVKVKITNENGETLEVTATIVFDEKTGELYIYDEKTGKVYKISLDDIEPSAGGSAGGS [r12_772_TrROS_Hall],folding stability dG unfold,[1],2.03 ± 0.082 kcal/mol
same,folding stability dG unfold,[2],3.94 ± 0.077 kcal/mol
same,folding stability dG unfold,[3],3.53 ± 0.09 kcal/mol
SAGGSAGGSKLRLVLKFKTPEEAEEAARKLAEELKKKEGVKEVKVSVVKVNGEYYVVVEVEKESAGGSAGGS [r12_7_TrROS_Hall],folding stability dG unfold,[1],2.53 ± 0.27 kcal/mol
same,folding stability dG unfold,[2],4.15 ± 0.11 kcal/mol
same,folding stability dG unfold,[3],3.72 ± 0.25 kcal/mol
SAGGSAGGSKMLLVKVYIEETKEEIVIEVPEGMTLEEIAERLRELGYKIKKIEVYELPPPPEESAGGSAGGS [r12_955_TrROS_Hall],folding stability dG unfold,[1],3.82 ± 0.18 kcal/mol
same,folding stability dG unfold,[2],4.25 ± 0.078 kcal/mol
same,folding stability dG unfold,[3],4.11 ± 0.3 kcal/mol
SAGGSAGGSKMVLKVTLENGKTIEIEAGETIEEIKAKIEEEFGKPVKIKVEKVSAEELGLKPESAGGSAGGS [r12_379_TrROS_Hall],folding stability dG unfold,[1],0.304 ± 0.13 kcal/mol
same,folding stability dG unfold,[2],1.59 ± 0.055 kcal/mol
same,folding stability dG unfold,[3],1.33 ± 0.17 kcal/mol
SAGGSAGGSKNVKTVTIPFNNMSPSKFIEQIKNHPVDAIEIEMPDPWYRRFLNWLKDEGIKVISAGGSAGGS [r12_610_TrROS],folding stability dG unfold,[1],1.27 ± 0.053 kcal/mol
same,folding stability dG unfold,[2],1.49 ± 0.18 kcal/mol
same,folding stability dG unfold,[3],1.49 ± 0.12 kcal/mol
SAGGSAGGSKPDTIKITFPDGFEIEINGPGMIMIRFPEQGYIFRIPIDPDKNEIKIEIVEPLPSAGGSAGGS [r12_539_TrROS],folding stability dG unfold,[1],2.43 ± 0.11 kcal/mol
same,folding stability dG unfold,[2],3.39 ± 0.045 kcal/mol
same,folding stability dG unfold,[3],3.05 ± 0.13 kcal/mol
SAGGSAGGSKPELVIPITFPVLVKNPLDGKIYPVKVEIHIFYYPDKPIIEITLINPDGKPFPFSAGGSAGGS [r12_283_TrMRF],folding stability dG unfold,[1],2.13 ± 0.064 kcal/mol
same,folding stability dG unfold,[2],1.67 ± 0.038 kcal/mol
same,folding stability dG unfold,[3],1.93 ± 0.066 kcal/mol
SAGGSAGGSKPGEVYEVKVKIKDKETGKYYEVKVKVYRLEDGTLLIEVDGKIFEVPVKDIEIESAGGSAGGS [r12_790_TrROS_Hall],folding stability dG unfold,[1],3.25 ± 0.2 kcal/mol
same,folding stability dG unfold,[2],4.2 ± 0.082 kcal/mol
same,folding stability dG unfold,[3],3.99 ± 0.11 kcal/mol
SAGGSAGGSKPIPYRVKIPSPNGKTHKFDVQIQVRPDGMIDIHVPSGKTIHIPANYPVEIEPWSAGGSAGGS [r20_227_TrROS],folding stability dG unfold,[1],0.132 ± 0.13 kcal/mol
same,folding stability dG unfold,[2],-0.208 ± 0.52 kcal/mol
same,folding stability dG unfold,[3],0.056 ± 0.21 kcal/mol
SAGGSAGGSKPTLTLEIVLPPEMTLEQLEELARALAEELGLDEVEVRVERRPDGYLRITITVKSAGGSAGGS [r20_208_TrROS_Hall],folding stability dG unfold,[1],3.63 ± 0.18 kcal/mol
same,folding stability dG unfold,[2],3.45 ± 0.091 kcal/mol
same,folding stability dG unfold,[3],3.59 ± 0.12 kcal/mol
SAGGSAGGSKTITLSAEELEKMSPEERKKLAELAEKLGAKIEVKDGKVTITIEGLTPEELKALSAGGSAGGS [r12_945_TrROS_Hall],folding stability dG unfold,[1],3.84 ± 0.25 kcal/mol
same,folding stability dG unfold,[2],2.33 ± 0.12 kcal/mol
same,folding stability dG unfold,[3],3.06 ± 0.25 kcal/mol
